Legend:
[1] = target: T1, mouse Glut12/Slc2a12 (Mus musculus, UniProt Q8BFW9); assay: [[…]-14C]-urate uptake in transiently transfected HEK293 cells; format: cell-based; conditions: 10 µM urate, Krebs-Ringer buffer, pH 5.4, 10 min; labelled compound
T1 construct: full-length wild-type ORF in pEGFP-N1, EGFP-tagged; transient expression in HEK293 cells
T1 sequence (Q8BFW9 1-622): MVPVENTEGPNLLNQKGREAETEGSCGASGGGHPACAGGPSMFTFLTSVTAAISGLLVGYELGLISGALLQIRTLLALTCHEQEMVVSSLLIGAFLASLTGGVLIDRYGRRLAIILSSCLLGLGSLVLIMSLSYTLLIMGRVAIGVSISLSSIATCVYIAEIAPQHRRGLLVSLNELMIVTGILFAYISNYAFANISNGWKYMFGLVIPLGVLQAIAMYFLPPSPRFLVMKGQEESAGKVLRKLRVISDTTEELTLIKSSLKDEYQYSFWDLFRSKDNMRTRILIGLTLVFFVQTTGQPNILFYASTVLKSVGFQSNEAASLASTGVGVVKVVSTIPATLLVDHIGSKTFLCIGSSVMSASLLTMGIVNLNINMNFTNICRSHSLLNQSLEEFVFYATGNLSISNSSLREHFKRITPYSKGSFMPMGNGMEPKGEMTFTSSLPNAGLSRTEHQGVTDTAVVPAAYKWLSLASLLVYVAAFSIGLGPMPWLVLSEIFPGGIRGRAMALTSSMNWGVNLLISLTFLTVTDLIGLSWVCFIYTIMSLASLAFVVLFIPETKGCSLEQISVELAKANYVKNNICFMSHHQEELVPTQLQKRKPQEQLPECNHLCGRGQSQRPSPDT

[2] = substrate: O=C1O[C@H]([C@@H](O)CO)C(O)=C1O; assay: cells, lysate or membranes; conditions: Krebs-Ringer buffer, pH 5.4, 37 °C, labelled compound

Molecule: O=c1[nH]c(=O)c2[nH]c(=O)[nH]c2[nH]1 [urate]
- [8-14C]-urate uptake in transiently transfected HEK293 cells [1]: cell-based urate uptake assays using human GLUT12- and mouse Glut12-expressing HEK293 cells were conducted

B1: human GLUT12/SLC2A12 (Homo sapiens) (protein)
chain: MVPVENTEGPSLLNQKGTAVETEGSGSRHPPWARGCGMFTFLSSVTAAVSGLLVGYELGIISGALLQIKTLLALSCHEQEMVVSSLVIGALLASLTGGVLIDRYGRRTAIILSSCLLGLGSLVLILSLSYTVLIVGRIAIGVSISLSSIATCVYIAEIAPQHRRGLLVSLNELMIVIGILSAYISNYAFANVFHGWKYMFGLVIPLGVLQAIAMYFLPPSPRFLVMKGQEGAASKVLGRLRALSDTTEELTVIKSSLKDEYQYSFWDLFRSKDNMRTRIMIGLTLVFFVQITGQPNILFYASTVLKSVGFQSNEAASLASTGVGVVKVISTIPATLLVDHVGSKTFLCIGSSVMAASLVTMGIVNLNIHMNFTHICRSHNSINQSLDESVIYGPGNLSTNNNTLRDHFKGISSHSRSSLMPLRNDVDKRGETTSASLLNAGLSHTEYQIVTDPGDVPAFLKWLSLASLLVYVAAFSIGLGPMPWLVLSEIFPGGIRGRAMALTSSMNWGINLLISLTFLTVTDLIGLPWVCFIYTIMSLASLLFVVMFIPETKGCSLEQISMELAKVNYVKNNICFMSHHQEELVPKQPQKRKPQEQLLECNKLCGRGQSRQLSPET
- Km ([2]; 5 min uptake): 0.846 mM

B2: mouse Glut12/Slc2a12 (Mus musculus) (protein)
chain: T1 sequence (Q8BFW9 1-622)
- Km [2]: 1.245 mM

From paper PMC8786643 (iScience, 2022)
